Measurements: US20260031189A1, “METHOD AND SYSTEMS FOR PREDICTION OF HLA CLASS II-SPECIFIC EPITOPES AND CHARACTERIZATION OF CD4+ T CELLS” (BioNTech US Inc., priority 2022, published 2026)

Legend:
Assay in all cases: FP competition with FITC probe, HLA-sDM, average
[1] = biological target: HLA-DQA1*01:02/DQB1*06:02 soluble heterodimer (human), P01920
[2] = biological target: T1, HLA-DRA*01:01/DRB1*15:01 soluble heterodimer (human)
T1 chain 1: not shown
T1 chain 2: not shown

[3] = biological target: T2, HLA-DPA1*01:03/DPB1*04:01 soluble heterodimer (human), P20036
T2 chain 1: not shown
T2 chain 2: not shown

Binder	IC50 [1]	IC50 [2]	IC50 [3]
LPDDFTGCVIAWNSNN (modifications not checked) [S425-440]	390 nM		
GGFNFSQILPDPS (modifications not checked) [S798-810]	1200 nM		
ADAGFIKQYGDCLGDIA (modifications not checked) [S829-845]		56 nM	
EKKYFAATKFEPLAARL (modifications not checked)			30 nM
PTESIVRFPNITNLCPF (modifications not checked) [S322-338]		26 nM	
IGINITRFQTLLA (modifications not checked) [S231-243]	> 50000 nM		510 nM
TQQLIRAAEIRASAN (modifications not checked) [S1009-1023]	520 nM		
CTFEYVSQPFLMDLEGK (modifications not checked) [S166-182]			11 nM
CSNLLLQYGSFCTQ (modifications not checked) [S749-762]		270 nM	
FQTLLALHRSYLTPGDS (modifications not checked) [S238-254]		140 nM	
CEFQFCNDPFLGVYYHK (modifications not checked) [S131-147]			58 nM
PDKVFRSSVLHSTQDL (modifications not checked) [S39-54]	1600 nM		
AAATAGTTVYGAKAA (modifications not checked)	1100 nM		
EIDRLNEVAKNLNES (modifications not checked) [S1182-1196]	> 50000 nM		
